# Measurements published in IntAct's records for PubMed 19675567.
# B1: ATPase GET3 (Saccharomyces cerevisiae), Q12154 (parent)
# chain: MDLTVEPNLHSLITSTTHKWIFVGGKGGVGKTTSSCSIAIQMALSQPNKQFLLISTDPAHNLSDAFGEKFGKDARKVTGMNNLSCMEIDPSAALKDMNDMAVSRANNNGSDGQGDDLGSLLQGGALADLTGSIPGIDEALSFMEVMKHIKRQEQGEGETFDTVIFDTAPTGHTLRFLQLPNTLSKLLEKFGEITNKLGPMLNSFMGAGNVDISGKLNELKANVETIRQQFTDPDLTTFVCVCISEFLSLYETERLIQELISYDMDVNSIIVNQLLFAENDQEHNCKRCQARWKMQKKYLDQIDELYEDFHVVKMPLCAGEIRGLNNLTKFSQFLNKEYNPITDGKVIYELEDKE
# Variants of: B1
# Settings: with sc61b_human SEC61B
row,Variant,effect of a mutation on the interaction
1,MDLTVEPNLHSLITSTTHKWIFVGGKGGVGKTTSSCSIAIQMALSQPNKQFLLISTDPAHNLSDAFGEKFGKDARKVTGMNNLSCMEIDPSAALKDMNDMAVSRANNNGSDGQGDDLGSLLQGGALADLTGSIPGIDEALSFMEVMKHIKRQEQGEGETFDTVIFDTAPTGHTLRFLQLPNTLSKLLEKFGEITNKLGPMLNSFMGAGNVDISGKLNELKANVETIRQQFTDPDLTTFVCVCISEFLSLYETERLIQELISYDMDVNSIIVNQLLFAENDQEHNSKRSQARWKMQKKYLDQIDELYEDFHVVKMPLCAGEIRGLNNLTKFSQFLNKEYNPITDGKVIYELEDKE [C285S;C288S],decreasing interaction
